Test results reported in patent US20130035289A1 (UNIVERSITE DE LIEGE, published 2013).

B1: Recombinant 16K N-terminal human prolactin (16K hPRL) (other, UniProt P01236 29-167, looked up)
chain: LPICPGGAARCQVTLRDLFDRAVVLSHYIHNLSSEMFSEFDKRYTHGRGFITKAINSCHTSSLATPEDKEQAQQMNQKDFLSLIVSILRSWNEPLYHLVTEVRGMQEAPEAILSKAVEIEEQTKRLLEGMELIVSQVHP
notes: domain: 16K N-terminal fragment; also called 16K PRL; 16K prolactin
B2: Recombinant 14K N-terminal human growth hormone (14K hGH) (other)
chain: MFPTIPLSRLFDNAMLRAHRLHQLAFDTYQEFEEAYIPKEQKYSFLQNPQTSLSFSESIPTPSNREETQQKSNLELLRISLLLIQSWLEPVQFLRSVFANSLVYGASDSNVYDLLKDLEEGIQTLMGRLEDGSP
notes: Produced in E. coli as in WO 98/51323; it is tied to the 14-16 kD fragments in general, not to the tested batch; also called 14K GH; r14K GH

How the values were obtained:
[1] = biological target: T1, Recombinant wild type human Plasminogen Activator Inhibitor type 1 (PAI-1) (human, UniProt P05121 24-402); assay: SPR (BIAcore 1000), PAI-1 immobilized on CM5 chip, 25 C
T1 construct: In the yeast two-hybrid confirmation full-length human PAI-1 was cloned in pGADT7 (GAL4 prey fusion); also called recombinant wt PAI-1; rPAI-1

[2] = biological target: T1, Recombinant wild type human Plasminogen …; assay: SPR (BIAcore 1000), 16K hPRL immobilized on CM5 chip, 25 C
[3] = biological target: T2, urokinase-type plasminogen activator (uPA) (UniProt P00749 21-431, limits assumed); assay: immunoprecipitation with uPA without PAI-1, Western blot for 16K PRL
PAI-1/uPA complex = biological target: T3, PAI-1/uPA complex (human, UniProt P05121 24-402; P00749 21-431, limits assumed); assay: SPR (BIAcore 1000), 16K hPRL immobilized on CM5 chip, PAI-1 pre-incubated with uPA, 25 C
T3 construct: For SPR formed by incubating PAI-1 (2 uM) and uPA (1.4 uM) for 10 min at 37 C before loading; also called uPA/PAI-1; uPA-PAI-1 complex

[4] = biological target: T2, urokinase-type plasminogen activator …; assay: immunoprecipitation with uPA without PAI-1, Western blot for 14K GH

Row | Binder | Kd [1] | Kd [2] | binding result [3] | Kd (PAI-1/uPA complex) | binding result [4]
1 | B1 | 600 nM | 580 nM | no binding | 150 nM | –
2 | B2 | 1000 nM | – | – | – | no binding
